Data taken from patent US20130012690.

Molecular target: Tfl-bZip (GCN4 residues 226-281, leucine zipper leucines replaced with 5,5,5-trifluoroleucine) Leu to 5,5,5-trifluoroleucine in the GCN4-p1 dimerization domain (four d-position leucines) (UniProt P03069)
Experiment: EMSA

Sequence of Tfl-bZip (GCN4 residues 226-281, leucine zipper leucines replaced with 5,5,5-trifluoroleucine) Leu to 5,5,5-trifluoroleucine in the GCN4-p1 dimerization domain (four d-position leucines) (P03069 whole entry, the tested form may be a part): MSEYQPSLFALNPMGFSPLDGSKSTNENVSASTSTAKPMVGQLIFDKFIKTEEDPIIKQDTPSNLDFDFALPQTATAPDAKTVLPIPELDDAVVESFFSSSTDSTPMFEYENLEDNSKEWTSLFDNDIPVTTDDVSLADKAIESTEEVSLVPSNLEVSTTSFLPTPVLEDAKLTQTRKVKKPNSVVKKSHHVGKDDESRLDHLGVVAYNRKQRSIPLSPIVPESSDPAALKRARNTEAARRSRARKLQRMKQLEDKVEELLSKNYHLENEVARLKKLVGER

Sequence	Kd (densitometry of mobility shift assay)	Kd (densitometry, CD at 0 C also shows coil-to-helix transition on DNA binding)
GTGGAGATGACTCATCTCCGG (double strand) [AP-1 site oligonucleotide]	12.5 nM	–
TGGAGATGACGTCATCTCCT (double strand) [CREB site oligonucleotide]	–	5.4 nM
